The values that follow come from patent US10328148B2, “Protein drug formulations and packages” (Purdue Research Foundation, priority 2010, dated 2019).

This data set concerns IgG. The experiment in a line: HP-SEC of IgG with free Protein A or Protein G: complex formation and agitation-induced aggregation. The class given is physicochemical. Conditions: IgG:Protein A or G ratio 1:4, RT 2 h. The procedure: Effect of proteins A and G on aggregation of IgG. High performance size exclusion chromatography (HP-SEC) is used to verify that IgG binds with Protein A or Protein G completely. 50 µL aliquots are injected to a Tosoh TSK G 13000 SWXL Gel 3000 column ([…]×7.8 mm) and separated at a flow rate of 0.5 mL/min. The mobile phase contains 50 mM potassium phosphate and 100 mM K2SO4 at pH 7.1. The relative percentage of IgG monomer and dimer are calculated in triplicate as a percentage of the total chromatographic peak area at 280 nm. Fresh IgG is incubated with free Protein A or free Protein G, respectively, at IgG:Protein A or G ratio of 1:4 at RT for 2 h before being subjected to agitation. […] Effect of agitation of protein A and protein G complexes of IgG. The prior Example 1 is repeated, subjecting the IgG+Protein A or IgG+Protein G to agitation on a shaker at room temperature for 44 h.

B1: Protein G: free Protein G, immunoglobulin-binding protein used as polyamino acid ligand (protein)
chain: TYKLILNGKTLKGETTTEAVDAATAEKVFKQYANDNGVDGEWTYDDATKTFTVTEKPEVIDASELTPAVTTYKLVINGKTLKGETTTEAVDAATAEKVFKQYANDNGVDGEWTYDDATKTFTVTEKPEVIDASELTPAVTTYKLVINGKTLKGETTTKAVDAETAEKAFKQYANDNGVDGVWTYDDATKTFTVTE
Take B1: the “Complex formation with IgG by HP-SEC” value was “formation of IgG-Protein A and IgG-Protein G complexes”.
